# In patent publication EP1486506A1 (INSTITUT NATIONAL DE LA SANTE ET DE LA RECHERCHE MEDICALE …, dated 2004):
# T1: LexA alone (UniProt P0A7C2 1-202)
# T1 construct: also called only the LexA part of the fusion protein
# T1 sequence: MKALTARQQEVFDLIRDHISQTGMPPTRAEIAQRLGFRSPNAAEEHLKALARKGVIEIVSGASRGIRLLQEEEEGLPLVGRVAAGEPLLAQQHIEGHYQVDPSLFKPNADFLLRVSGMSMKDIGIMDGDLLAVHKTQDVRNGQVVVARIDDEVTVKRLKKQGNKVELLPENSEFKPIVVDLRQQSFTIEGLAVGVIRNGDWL
# B1: VP16-HIPK2/PEST (other)
# chain: HVMRQQPTSTTSSRKSKQHQSSVRNVSTCEVTSSQAISSPQRSKRVKENTPPRCAMVHSSPACSTSVTCGWGDVASSTTRERQRQTIVIPDTPSPTVSVITISSDTDEEEEQKHAPTSTVSKQRKNVISCVTVHDSP
# notes: range 789-925
# Target: T1, LexA alone
# Assay: yeast two-hybrid GFP reporter, flow cytometry (control, Fig. 2E)
binder,measurement,value
B1,binding result,no binding
